# B1: WAC-3xFlag (human WAC with C-terminal 3xFlag tag, pACEMam-WAC-3C-3xFlag) (natural protein, UniProt Q9BTA9-1 1-647, looked up)
# chain: MVMYARKQQRLSDGCHDRRGDSQPYQALKYSSKSHPSSGDHRHEKMRDAGDPSPPNKMLRRSDSPENKYSDSTGHSKAKNVHTHRVRERDGGTSYSPQENSHNHSALHSSNSHSSNPSNNPSKTSDAPYDSADDWSEHISSSGKKYYYNCRTEVSQWEKPKEWLEREQRQKEANKMAVNSFPKDRDYRREVMQATATSGFASGMEDKHSSDASSLLPQNILSQTSRHNDRDYRLPRAETHSSSTPVQHPIKPVVHPTATPSTVPSSPFTLQSDHQPKKSFDANGASTLSKLPTPTSSVPAQKTERKESTSGDKPVSHSCTTPSTSSASGLNPTSAPPTSASAVPVSPVPQSPIPPLLQDPNLLRQLLPALQATLQLNNSNVDISKINEVLTAAVTQASLQSIIHKFLTAGPSAFNITSLISQAAQLSTQAQPSNQSPMSLTSDASSPRSYVSPRISTPQTNTVPIKPLISTPPVSSQPKVSTPVVKQGPVSQSATQQPVTADKQQGHEPVSPRSLQRSSSQRSPSPGPNHTSNSSNASNATVVPQNSSARSTCSLTPALAAHFSENLIKHVQGWPADHAEKQASRLREEAHNMGTIHMSEICTELKNLRSLVRVCEIQATLREQRILFLRQQIKELEKLKNQNSFMV
# notes: WAC (WW domain-containing adaptor with coiled-coil), human, cDNA NM_016628.5 from GenScript (clone OHu28471); An HRV 3C protease site stands between WAC and the 3xFlag tag; also called WW domain-containing adaptor with coiled-coil; WAC lysate; source: Expi293 cells, overexpressed; purified on anti-Flag resin and kept on the beads; not shown: 3xFlag, C-terminal, kept
# How the values were obtained:
# RUVBL1-RUVBL2 complex = biological target: T1, RUVBL1-RUVBL2 complex (human, UniProt Q9Y265 1-456; Q9Y230 1-463); assay: pull-down; WAC-3xFlag from Expi293 lysate purified and held on anti-Flag resin (washes incl. 5 mM ATP/5 mM MgCl2); purified prey added 20 min at 4 °C in 150 mM Tris pH 8, 300 mM KCl, 10% glycerol, 0.5 mM TCEP; elution with 3xFlag peptide; SDS/PAGE and western blot; conditions: both partners purified
# T1 construct: RUVBL1 (RuvB-like 1), human, N-terminal His-tag and TEV site; RUVBL2 (RuvB-like 2), human, untagged; also called RUVBL1‐RUVBL2 module; RUVBL1‐RUVBL2 ATPase module; source: E. coli BL21 (DE3), co-expressed, purified (HisTrap HP; an untagged form by TEV digestion and a second HisTrap step)
# [1] = biological target: mTOR-mLST8 complex (10xHis-TEV-mTOR with untagged mLST8) (human, UniProt P42345 1-2549; Q9BVC4 1-326); assay: as above; conditions: both partners purified
# T1 sequence (Q9Y265 whole entry, chain 1 of 2): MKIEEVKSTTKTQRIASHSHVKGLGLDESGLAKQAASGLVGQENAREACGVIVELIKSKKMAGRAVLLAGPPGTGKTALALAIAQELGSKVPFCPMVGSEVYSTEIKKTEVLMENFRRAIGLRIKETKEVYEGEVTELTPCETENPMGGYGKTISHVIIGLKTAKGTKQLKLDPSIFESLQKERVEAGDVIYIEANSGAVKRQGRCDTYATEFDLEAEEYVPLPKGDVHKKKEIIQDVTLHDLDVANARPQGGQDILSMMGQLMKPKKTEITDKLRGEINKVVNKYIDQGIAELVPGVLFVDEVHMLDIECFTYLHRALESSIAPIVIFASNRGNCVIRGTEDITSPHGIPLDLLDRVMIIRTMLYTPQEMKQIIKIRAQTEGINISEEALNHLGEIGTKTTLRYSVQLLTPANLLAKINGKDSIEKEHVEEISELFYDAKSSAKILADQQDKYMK
# T1 sequence (Q9Y230 whole entry, chain 2 of 2): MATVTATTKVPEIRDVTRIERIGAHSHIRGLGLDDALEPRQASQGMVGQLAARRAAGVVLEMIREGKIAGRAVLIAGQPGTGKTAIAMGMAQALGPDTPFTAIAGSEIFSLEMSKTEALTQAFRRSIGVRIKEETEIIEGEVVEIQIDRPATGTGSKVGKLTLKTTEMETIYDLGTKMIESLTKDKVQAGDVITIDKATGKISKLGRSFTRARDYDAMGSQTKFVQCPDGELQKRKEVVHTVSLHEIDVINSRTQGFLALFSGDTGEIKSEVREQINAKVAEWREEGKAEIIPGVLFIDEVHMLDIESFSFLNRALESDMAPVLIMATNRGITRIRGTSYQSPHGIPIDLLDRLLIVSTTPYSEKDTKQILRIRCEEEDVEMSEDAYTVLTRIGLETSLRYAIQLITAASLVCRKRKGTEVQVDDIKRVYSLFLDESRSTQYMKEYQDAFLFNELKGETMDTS
binder,measurement,setting,value
B1,binding result,RUVBL1-RUVBL2 complex,binds
same,binding result,[1],binds
